Laboratory results as given in patent US8067376B2, “Pharmaceutical compositions for transdermal delivery” (Forhumantech Co., Ltd., priority 2004, dated 2011).
Entries after “also recorded” stand apart in the source; their conditions may differ. Ends that are not written are not given here.

Experiments:
[1] = tested on: HeCaT cell line; test: Cell proliferation-inhibitory effect by WST-1 assay; format: cell-based; settings: 0.2, 1.5, 4.4, 13.3 and 40 μM, after 2 days
Text: In this Example, the cell proliferation-inhibitory effect of PTD-MTX was observed by WST-1 assay (Roche Biochemical) in vitro.
To analyze the cell proliferation-inhibitory effect of PTD-MTX, a HeCaT cell line (obtained from the Department of Dermatology, College of Medicine, Chungnam National University, Korea) was used to analyze cell death. For this purpose, […] were inoculated into DMEM medium (10% FCS, antibiotics (GIBCO)) on a 96-well plate and cultured overnight. To the culture medium, MTX alone, PTD-MTX and PTD-ACA-MTX conjugates prepared in Example 1 were added with concentrations of 0.2, 1.5, 4.4, 13.3 and 40 μM respectively. After 2 days, the inhibition of proliferation of the cells was analyzed by the WST-1 assay.
In the WST-1 assay, tetrazolium salt is present in the respiratory chain of mitochondria and cleaved into a formazan dye by succinate-tetrazolium-reductase having activity only for viable cells, and if the number of viable cells increases, the entire activity of mitochondria dehydrogenase in a sample will increase. Since this increase in enzymatic activity induces an increase in the production of formazan dye, the formazan dye will show a linear correlation with the number of metabolically active cells in medium. The absorbance of the dye solution was measured with an ELISA reader to quantify the formazan dye produced by the metabolically active cells so as to observe cell proliferation ability and cell viability.

[2] = tested on: DBA/1J mice; test: Arthritis animal model (rheumatoid arthritis induced by II-type collagen); format: in vivo, mouse
Experimental: For in vivo verification of the pharmacological effects of the PTD-ACA-MTX conjugate, DBA/1J mice (obtained from Samtako) were injected with e II-type collagen (obtained from Sigma) to induce rheumatoid arthritis. The mice were divided into a group for intraperitoneal (I.P.) injection of the PTD-ACA-MTX conjugate prepared in Example 1, a group for transdermal administration of the PTD-ACA-MTX conjugate prepared in Example 1, and a group for intraperitoneal (I.P.) injection of MTX alone. For the groups for intraperitoneal (I.P.) injection, MTX was injected in a dosage of 0.3 mg/kg for 4 weeks, and for the group for transdermal administration, a cream-type composition consisting of 5 wt %, based on the weight of the composition, of ethanol, 15 wt % of liquid paraffin, 40 wt % of Vaseline, 0.1 wt % of the PTD-ACA-MTX conjugate, 10 wt % of glycerin and 30 wt % of polyethylene glycol was prepared and then applied on rheumatoid arthritis-induced sites four times weekly. After treatment with the drugs, the arthritis index was monitored one time each week, and after 4 weeks, the animals were sacrificed and the IL-4, IL-6, TNF-α and arthritis factor levels in the blood were measured (see FIGS. 7, 8 and 9; results obtained using PTD of SEQ ID NO: 2 are not shown in the drawings). In FIGS. 7, 8 and 9, N: normal mice; CT: mice having rheumatoid arthritis induced by injection of collagen; M1: the group injected intraperitoneally with MTX alone; M2: the group injected intraperitoneally with PTD-ACA-MTX; and M3: the group for which the ointment preparation containing the PTD-ACA-MTX conjugate was administered transdermally.

[3] = tested on: Sprague Dawley rats; test: Toxicity test by single subcutaneous administration to rats; format: in vivo, rat
Experimental: Toxicity by the single subcutaneous administration of PTD-ACA-MTX prepared in Example 1 was examined. Male and female Sprague Dawley rats (Samtako) were divided into an excipient control group administered with sterilized water for injection, and test groups administered with the inventive conjugate in amounts of 5, 50 and 500 mg/kg. Each of the animal groups consisted of 10 animals (five males and five females) and observed for mortality for 2 weeks, general symptoms, bodyweight change, and autopsy findings. All the test methods were performed according to toxicity test standards provided by the Korea Food and Drug Administration, and the test results are as follows.

[4] = tested on: beagle dogs; test: Toxicity test by single subcutaneous administration to beagle dogs; format: in vivo, dog
Experimental: Toxicity caused by single subcutaneous administration of the inventive conjugate was examined. Male and female beagle dogs were administered subcutaneously with the inventive conjugate in each of amounts of 4, 20 and 100 mg/kg. Each of the animal groups consisted of four animals (2 males and 2 females) and observed for mortality for 2 weeks, general symptoms, bodyweight change, and autopsy findings. All the test methods were performed according to toxicity test standards provided by the Korea Food and Drug Administration, and the test results are as follows.

[5] = tested on: New Zealand White rabbits; test: Skin irritation test in rabbits; format: in vivo, rabbit; settings: healthy and scratch skin
Experimental: The skin irritability of the inventive conjugate was examined. The inventive conjugate was applied to the healthy skin and scratch skin of New Zealand White rabbits, which were then evaluated comparatively with the healthy skin and scratch skin to which the inventive conjugate had not been applied.

[6] = Prior enzyme test of PTD-MTX conjugate versus MTX alone; format: biochemical; settings: prior enzyme test results
[7] = 500 mg/kg, male and female animals

In the case of “PTD-ACA-MTX (YARVRRRGPRR; also: aminocaproic acid linker, methotrexate conjugate, position not given here)”, the “cell proliferation-inhibitory effect (rank order)” value [1] is reported as “MTX alone <PTD-MTX<PTD-ACA-MTX”, the “cell proliferation-inhibitory effect (rank order)” value ([1]; listed as MTX-ACA-PTD conjugate) is reported as “highest inhibitory effect” and the “inflammatory cells which have penetrated inflammatory sites (tissue photographs)” value ([2]; after treatment, H&E and M-T staining) is reported as “greatly decreased”. The “amount of inflammation-mediating cytokine TNF-α” value ([2]; blood, after 4 weeks of treatment) was “greatly decreased”, the “pharmacological effect in arthritis animal model” value ([2]; group M3, transdermal ointment, compared with M2 (I.P. MTX-ACA-PTD) and M1 (I.P. MTX alone)) was “substantially the same effect” and the autopsy findings ([3]; 500 mg/kg, female animals) was “splenomegaly was observed”. The “autopsy findings at the administration site” value [3, 7] was “red fluid retention and incrustation”, the general symptoms [3, 7] was “congestion was observed starting from one day after the administration; also recorded: incrustation was observed starting from 2 days after the administration” and the general symptoms ([3]; 500 mg/kg, male animals) was “systemic edema was observed”. The bodyweight change ([3]; 500 mg/kg, male animals, 3, 7 and 14 days after administration) was “inhibition of an increase in bodyweight”, the “mortality (animals killed by the test substance)” value ([3]; 5, 50 and 500 mg/kg single s.c., 2 weeks) was “not observed” and the general symptoms ([3]; 4 days to 6 days after administration, group not clearly stated (500 mg/kg context)) was “Diarrhea and soft feces were sporadically observed”. The “minimum lethal dose (MLD)” value ([3]; single subcutaneous administration, rats) was “more than 500 mg/kg”, the bodyweight change ([4]; 100 mg/kg, male and female animals, 3 days after administration) was “temporary inhibition of an increase in bodyweight” and the general symptoms ([4]; 100 mg/kg, males, anorexia 2 to 4 days, diarrhea 3 days after administration, listed as inventive conjugate) was “anorexia was observed; also recorded: diarrhea was observed”. For the same compound, the general symptoms ([4]; 100 mg/kg, one male and female, starting from 1 hour after administration) was “reduction in spontaneous motility was observed”, the autopsy findings ([4]; 4, 20 and 100 mg/kg single s.c.) was “abnormal findings were not observed” and the “mortality (animals killed by the test substance)” value ([4]; 4, 20 and 100 mg/kg single s.c., 2 weeks) was “No animal killed by the test substance was observed”. For the same compound, the general symptoms ([4]; groups with more than 20 mg/kg, males and females, 1 hour to 6 hours after administration) was “eyelid edema was observed”, the general symptoms ([4]; one male of 20 mg/kg group and one female of 100 mg/kg group) was “edema and a reduction in spontaneous motility were continued up to 2 days after administration” and the minimum lethal dose ([4]; single subcutaneous administration, beagle dogs, both males and females) was “over 100 mg/kg”. The skin irritability classification [5] was “non-irritating substance” and the skin irritation index [5] was “zero”.
With “PTD-MTX (YARVRRRGPRR-NH2; not fully specified (N-terminus); also: methotrexate conjugate)” the “cell proliferation-inhibitory effect (rank order)” value [1] was “MTX alone <PTD-MTX<PTD-ACA-MTX” and the “effect in enzyme test compared to MTX alone” value [6] was “low effects compared to MTX alone”.
With `CN(Cc1cnc2nc(N)nc(N)c2n1)c1ccc(C(=O)N[C@@H](CCC(=O)O)C(=O)O)cc1` [MTX alone, methotrexate, reference compound] the “cell proliferation-inhibitory effect (rank order)” value [1] was “followed by the MTX-PTD conjugate and the MTX alone in that order; also recorded: MTX alone <PTD-MTX<PTD-ACA-MTX”.
